Substitutions are numbered along the chain they refer to.

Common to all, as to experiment: fluorescence anisotropy; FA: 50 mM Tris pH 7.0 (also given as pH 8), 200 mM NaCl, 10 mM 2-mercaptoethanol, 20 C; NMR: 20 mM Bis-Tris pH 7.0, 200 mM NaCl, 4 mM 2-mercaptoethanol; pull-down: HSB, 1 h at 30 C
Common to all, as to conditions: protein: recombinant; tags: 6xHis-Smt3 removed with Ulp1; label: 5' fluorescein

One data set addresses T1, RBM7 RRM (Homo sapiens (cDNA from HEK293T-Rex), UniProt Q9Y580 6-94).
T1 sequence: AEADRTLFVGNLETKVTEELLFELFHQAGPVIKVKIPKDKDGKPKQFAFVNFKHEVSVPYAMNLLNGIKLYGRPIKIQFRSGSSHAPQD

For the next data set, the target named is T2, RBM7 RRM K40A (Homo sapiens, UniProt Q9Y580 6-94, K40A).
T2 sequence: T1 sequence with K35A

For another data set, the target named is T3, RBM7 RRM K81A (Homo sapiens, UniProt Q9Y580 6-94, K81A).
T3 sequence: T1 sequence with K76A

For the next data set, the target named is T4, RBM7 RRM K38A (Homo sapiens, UniProt Q9Y580 6-94, K38A).
T4 sequence: T1 sequence with K33A

UUUUUUU (ssRNA) [U7]: the Kd with RBM7 RRM was determined as 60 ± 10 µM. Regarding AAAAAAA (ssRNA) [A7], the binding result in the data set with RBM7 RRM is given as “no binding”. Regarding CUCU (ssRNA) [Y4], the equilibrium dissociation constant (Kd) in the data set with RBM7 RRM was determined as 160 ± 10 µM. Same read-out and setting: the result for CUUCU (ssRNA) [Y5] reads 90 ± 10 µM; that for AUUAUUA (ssRNA) [AU7], 130 ± 10 µM.

CUCUCUC (ssRNA) [Y7]: the Kd in the data set with RBM7 RRM K40A amounted to 200 ± 20 µM; in the data set with RBM7 RRM, 70 ± 10 µM; with RBM7 RRM K81A it was 100 ± 10 µM; in the data set with RBM7 RRM K38A it was 90 ± 10 µM.

By Kd is commonly meant the free concentration of one partner at which half of the binding sites on the other are occupied at equilibrium, for simple one-to-one binding.

These data come from article PMC4417160, “RBM7 subunit of the NEXT complex binds U-rich sequences and targets 3′-end extended forms of snRNAs”.
